Experiment [1] concerns the target T1, SARS-CoV-2 WT (WH01) S protein ectodomain (SARS-CoV-2, UniProt P0DTC2 14-1213). The experiment is described as follows: BLI.
The next experiment concerns the target WT S2. The experiment is described as follows: ELISA.
For the next experiment, the target named is WT NTD. Description: ELISA. In general terms: In an ELISA, binding on a coated surface is turned into a signal by an enzyme label.
The target in experiment [2] is T1, SARS-CoV-2 WT (WH01) S protein …. The experiment is described as follows: ELISA.
In experiment [3] the target is S1 of SARS-CoV-2 WT S protein (SARS-CoV-2). Description: ELISA.
Experiment [4] deals with RBD of SARS-CoV-2 WT S protein (SARS-CoV-2, UniProt P0DTC2). The experiment is described as follows: ELISA.
Experiment [5] deals with SARS-CoV-2 WT (WH01) S protein on S-293T cells (SARS-CoV-2, UniProt P0DTC2). Description: FACS. On the technique in general: Flow cytometry measures light scatter and fluorescence of single cells or particles in a stream.

For 1 molecule, Kd and EC50 results are on record in paper PMC11141937 (2024).

A value given as a limit tells only on which side of the number the result lay.

B1: O5C2 mAb (antibody, V domains shown)
VH: EVQLVESGGGLIQPGGSLRLSCAASGIIVSRNYMSWVRQAPGKGLEWVSILYAGGSSFYAEPVQGRFTVSRDNSKNTLFLEMNSLRVEDTAVYYCARDLQWGIDIWGQGAMVTVSS
VL: DIQMTQTPPSLSASVGDRVSISCRASQSTGSWLAWYQQKPGKAPKLLIYKTSSLESGVPSRFSGSGSGTEFTLTISSLQPDDVATYYCQHYDTYSSTFGQGTKVEIK
A word on the Kd: it is the concentration at which binding is half-saturated. One may read the EC50 as the concentration giving half of the maximal effect. In the case of B1, the Kd in experiment [1] is 0.865 nM. In addition, the EC50 was greater than 1000 nM in the experiment with WT S2; greater than 1000 nM with WT NTD; 0.024 nM in experiment [2]; 0.017 nM in experiment [3]; 0.018 nM in experiment [4]; 0.177 nM in experiment [5].
